Reference: doi:10.1101/2025.11.24.690153
Like-named read-outs stand apart in the source and are kept apart here. Each block holds one molecule with its values, some of them ahead of it.

What was measured:
GtComGD [1] = target: T1, GtComGD (Geobacillus thermodenitrificans, UniProt A0ABY9Q9R4 29-145); assay: EMSA
T1 sequence: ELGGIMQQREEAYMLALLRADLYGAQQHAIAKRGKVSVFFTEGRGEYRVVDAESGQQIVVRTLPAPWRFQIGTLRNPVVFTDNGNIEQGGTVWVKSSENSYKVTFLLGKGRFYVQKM

GtComGD [2] = target: T1, GtComGD; assay: BLI
[3] = target: Geobacillus thermodenitrificans His-MBP-ComGC (Geobacillus thermodenitrificans); assay: SEC
[4] = target: Geobacillus thermodenitrificans His-MBP-ComGC (Geobacillus thermodenitrificans); assay: SEC; remark: listed apart in the source
[5] = target: Geobacillus thermodenitrificans His-MBP-ComGD (Geobacillus thermodenitrificans); assay: SEC
[6] = target: Geobacillus thermodenitrificans His-MBP-ComGD (Geobacillus thermodenitrificans); assay: SEC; remark: listed apart in the source
[7] = target: Geobacillus thermodenitrificans His-MBP-ComGD (Geobacillus thermodenitrificans); assay: SEC; remark: listed apart in the source
BsComGC [8] = target: T2, BsComGC (Bacillus subtilis PY79, UniProt P25955 28-98); assay: pull-down
T2 sequence: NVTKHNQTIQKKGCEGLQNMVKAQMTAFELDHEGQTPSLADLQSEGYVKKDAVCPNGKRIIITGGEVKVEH

BsComGC [9] = target: T2, BsComGC; assay: EMSA

Molecule: 40 bp dsDNA (EMSA)
Kd (GtComGD [1]): 20 µM

Molecule: 2000 bp dsDNA (BLI)
Kd (GtComGD [2]): 96 µM

stoichiometry N [3]: 2 | stoichiometry N [4]: 2
Molecule: Geobacillus thermodenitrificans His-MBP-ComGC (domain or fragment)

stoichiometry N [5]: 2 | stoichiometry N [6]: 2 | stoichiometry N [7]: 2
Molecule: Geobacillus thermodenitrificans His-MBP-ComGD (domain or fragment)

Molecule: AAAAAAAAAAAA (ssDNA) [12 nt polyA ssDNA]
binding result (BsComGC [8]): binds

Molecule: TTTTTTTTTTTTTTTTTTTTTTCCCACAACAAGCCACCCG (ssDNA) [unstructured ssDNA (BLI, Fig. S3A)]
Kd (GtComGD [2]): 53 µM

Molecule: TTTTTTTTTTTTTTTTTTTTTTCCCACAACAAGCCACCCG (ssDNA) [40 nt ssDNA (EMSA, Fig. S3A)]
Kd (GtComGD [1]): ~13.6 µM | Kd (BsComGC [9]): ~100 µM
